# Positions count from the first letter of the chain named.
# B1: SR-AB42: cycle 3 antibody, lineage SR-AB23; CDRs SEQ ID NO: 166-171; HCVR SEQ ID NO: 318, LCVR SEQ ID NO: 319 (antibody, V domains shown)
# VH: QVQLVESGGGVVQPGRSLRLSCAASGFTFRSYVMHWVRQAPGKGLEWVAVISHEGSLKYYADSVKGRFTISRDNSKNTLYLQMNSLRAEDTAVYYCARPRIAARRGGFGYWGQGTLVTVSS
# VL: NFMLTQPHSVSESPGKTVTISCTRSSGNIDNNYVQWYQQRPGSSPTTVIYEDNQRPSGVPDRFSGSIDSSSNSASLTISGLKTEDEADYYCQSYDYDTQGVVFGGGTKLTVL
# B2: SR-AB23: second-round (CDR-H3 mutagenesis) antibody, lineage SR-AB14; CDRs SEQ ID NO: 116-121 (antibody, V domains shown)
# VH: B1 VH
# VL: B1 VL with Y96S, T98N
# B3: SR-AB22: second-round (CDR-H3 mutagenesis) antibody, lineage SR-AB14; CDRs SEQ ID NO: 108-113 (antibody, V domains shown)
# VH: B1 VH with R98V
# VL: B1 VL with Y96S, T98N
# B4: SR-AB63: cycle 3 antibody, lineage SR-AB26; CDRs SEQ ID NO: 292-297; HCVR SEQ ID NO: 360, LCVR SEQ ID NO: 361 (antibody, V domains shown)
# VH: QLQLQESGPGLVKPSETLSLTCTVSGGSIRSSSYYWGWIRQPPGKGLEWIGSISYSATTYYNPSLKSRVTISVDTSKNQFSLKLSSVTAADTAVYYCAGDPSYDSIAGMQVWGQGTTVTVSS
# VL: DIQLTQSPSSLSASVGDRVTITCRASQSISSYLNWYQQKPGKAPKLLIYAASNLQSGVPSRFSGSGSGTDFTLTISSLQPEDFATYYCQQSFDWPLTFGGGTKVEIK
# Assays:
# [1] = target: huLTBP1 proTGFβ1 (Homo sapiens, UniProt P01137+Q14766); test: SPR (Biacore 8K) monovalent binding kinetics of Fabs, biotinylated antigen captured; design: biotin (complex biotinylated); conditions: for KD of Fab fragments / Binding of human Fabs for huLTBP1 proTGFβ1 and huLTBP3 proTGFβ1 (FIGS. 23, 24): SPR; for KD of Fab fragments: antigen not given; for Monovalent affinities (FIGS. 23, 24): figure legends
# Summary of the method: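 Biotinylated proTGFβ1 complexes (10 nM) captured on Biotin CAPture chip; Fabs injected at 10, 5, 2.5, 1.25, 0.625 nM (0 nM reference), 120 s contact, 900 s dissociation, multi-cycle with regeneration. HBS-EP+ pH 7.4; global 1:1 fit for ka, kd, KD.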
# [2] = tested on: proTGFβ1 presented by endogenous LTBP1/3 in LN229 cells; test: Endogenous LTBP caga assay: LN229 cells transfected with human proTGFβ1 only, CAGA12 luciferase reporter cells; assay type: cell-based; conditions: endogenous presenting molecules
# [3] = target: T1, murine LTBP1-proTGFβ1 (Mus musculus, UniProt P04202+Q8CG19); test: Murine LTBP overexpression caga assay: LN229 cells co-transfected with mouse LTBP1 and mouse proTGFβ1, CAGA12 reporter cells; assay type: cell-based; conditions: overexpressed murine LTBP1-proTGFβ1
# T1 construct: expressed in transfected cells; host or cells: LN229
# Method: Additionally, the ability of SR-AB2 to inhibit LTBP1/3-proTGFβ1 in a cell-based assay was also conducted. As essentially described above in Example 2, LN229 cells were seeded on fibronectin pre-coated assay wells and directly transfected with the indicated DNA molecules.
# LTBP complex-specific antibodies from the first round of affinity maturation/optimization (i.e., SR-AB14, SR-AB16, SR-AB17, SR-AB18, SR-AB19) were selected for a second round of affinity maturation/optimization (i.e., CDR-H3 mutagenesis as described herein) and particular progeny antibodies (SR-AB20, SR-AB21, SR-AB22, SR-AB23, SR-AB24, SR-AB25, SR-AB26, SR-AB27, SR-AB28, and SR-AB29) were assessed for their ability to inhibit TGFβ activity using LN229 cells. For the assays depicted in FIGS. 13A, 13B, 14A, and 14B the following protocol was used, which is a modified version of Assay II in Example 2. […]
# On day 0, prior to cell seeding, assay plates were coated with Fibronectin (LTBP over expression assay only). […] The cell pellet was resuspended in D10 media and viable cells per ml counted. […]
# Sequence of huLTBP1 proTGFβ1 (P01137 30-390): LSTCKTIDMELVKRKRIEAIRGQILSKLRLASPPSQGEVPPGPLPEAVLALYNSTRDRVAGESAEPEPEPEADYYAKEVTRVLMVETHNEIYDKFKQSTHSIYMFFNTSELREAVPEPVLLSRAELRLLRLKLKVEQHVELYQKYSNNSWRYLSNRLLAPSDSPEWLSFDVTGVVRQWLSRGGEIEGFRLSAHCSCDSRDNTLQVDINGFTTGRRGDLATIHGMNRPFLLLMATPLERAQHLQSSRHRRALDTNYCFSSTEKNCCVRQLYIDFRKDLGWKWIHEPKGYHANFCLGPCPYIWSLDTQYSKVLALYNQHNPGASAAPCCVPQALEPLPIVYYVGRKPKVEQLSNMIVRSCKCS
# Sequence of huLTBP1 proTGFβ1 (Q14766 347-1721 limits assumed): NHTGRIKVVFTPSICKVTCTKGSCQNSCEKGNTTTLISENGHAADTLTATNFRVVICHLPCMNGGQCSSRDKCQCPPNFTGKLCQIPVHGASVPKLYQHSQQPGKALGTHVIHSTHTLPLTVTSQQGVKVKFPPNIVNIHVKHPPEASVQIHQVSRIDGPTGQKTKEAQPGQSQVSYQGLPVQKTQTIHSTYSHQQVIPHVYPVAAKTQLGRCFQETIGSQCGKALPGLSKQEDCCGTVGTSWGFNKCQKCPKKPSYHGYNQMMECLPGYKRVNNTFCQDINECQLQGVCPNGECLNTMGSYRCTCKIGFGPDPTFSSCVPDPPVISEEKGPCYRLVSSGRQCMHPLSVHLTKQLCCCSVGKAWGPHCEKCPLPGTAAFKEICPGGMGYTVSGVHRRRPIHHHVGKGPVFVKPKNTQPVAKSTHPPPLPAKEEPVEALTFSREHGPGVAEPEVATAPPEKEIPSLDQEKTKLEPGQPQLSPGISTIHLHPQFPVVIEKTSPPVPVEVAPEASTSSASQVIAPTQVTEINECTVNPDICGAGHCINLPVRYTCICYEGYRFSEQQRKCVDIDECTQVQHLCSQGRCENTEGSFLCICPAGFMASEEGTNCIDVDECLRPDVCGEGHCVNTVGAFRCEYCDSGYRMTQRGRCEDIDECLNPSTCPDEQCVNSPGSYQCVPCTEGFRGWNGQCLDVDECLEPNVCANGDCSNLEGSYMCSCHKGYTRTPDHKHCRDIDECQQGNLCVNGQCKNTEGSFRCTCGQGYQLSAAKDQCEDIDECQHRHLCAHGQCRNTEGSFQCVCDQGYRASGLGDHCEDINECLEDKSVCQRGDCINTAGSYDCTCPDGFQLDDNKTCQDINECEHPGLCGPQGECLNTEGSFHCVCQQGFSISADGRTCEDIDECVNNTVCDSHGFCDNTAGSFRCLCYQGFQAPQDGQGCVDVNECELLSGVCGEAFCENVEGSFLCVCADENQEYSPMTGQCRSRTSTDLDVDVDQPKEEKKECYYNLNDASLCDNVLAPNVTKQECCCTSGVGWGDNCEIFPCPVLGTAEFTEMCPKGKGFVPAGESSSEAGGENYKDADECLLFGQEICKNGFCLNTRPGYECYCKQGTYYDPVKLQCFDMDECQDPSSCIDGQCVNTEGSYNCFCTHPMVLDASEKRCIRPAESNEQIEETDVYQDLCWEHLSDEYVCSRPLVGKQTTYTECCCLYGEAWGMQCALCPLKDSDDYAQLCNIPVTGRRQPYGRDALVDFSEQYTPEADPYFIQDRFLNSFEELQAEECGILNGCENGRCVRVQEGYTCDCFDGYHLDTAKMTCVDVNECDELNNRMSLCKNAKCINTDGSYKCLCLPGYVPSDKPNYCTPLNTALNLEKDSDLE
# T1 sequence (P04202 30-390): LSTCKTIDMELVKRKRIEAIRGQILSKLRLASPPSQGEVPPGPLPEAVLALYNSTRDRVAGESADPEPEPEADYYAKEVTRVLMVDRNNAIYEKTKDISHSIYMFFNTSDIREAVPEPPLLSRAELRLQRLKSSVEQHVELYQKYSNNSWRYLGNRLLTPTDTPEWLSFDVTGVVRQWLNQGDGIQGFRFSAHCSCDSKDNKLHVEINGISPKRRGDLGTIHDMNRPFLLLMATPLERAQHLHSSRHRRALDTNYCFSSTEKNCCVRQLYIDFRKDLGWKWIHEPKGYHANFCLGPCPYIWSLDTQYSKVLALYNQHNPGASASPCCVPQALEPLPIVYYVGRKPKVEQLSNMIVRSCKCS
# T1 sequence (Q8CG19 339-1712 limits assumed): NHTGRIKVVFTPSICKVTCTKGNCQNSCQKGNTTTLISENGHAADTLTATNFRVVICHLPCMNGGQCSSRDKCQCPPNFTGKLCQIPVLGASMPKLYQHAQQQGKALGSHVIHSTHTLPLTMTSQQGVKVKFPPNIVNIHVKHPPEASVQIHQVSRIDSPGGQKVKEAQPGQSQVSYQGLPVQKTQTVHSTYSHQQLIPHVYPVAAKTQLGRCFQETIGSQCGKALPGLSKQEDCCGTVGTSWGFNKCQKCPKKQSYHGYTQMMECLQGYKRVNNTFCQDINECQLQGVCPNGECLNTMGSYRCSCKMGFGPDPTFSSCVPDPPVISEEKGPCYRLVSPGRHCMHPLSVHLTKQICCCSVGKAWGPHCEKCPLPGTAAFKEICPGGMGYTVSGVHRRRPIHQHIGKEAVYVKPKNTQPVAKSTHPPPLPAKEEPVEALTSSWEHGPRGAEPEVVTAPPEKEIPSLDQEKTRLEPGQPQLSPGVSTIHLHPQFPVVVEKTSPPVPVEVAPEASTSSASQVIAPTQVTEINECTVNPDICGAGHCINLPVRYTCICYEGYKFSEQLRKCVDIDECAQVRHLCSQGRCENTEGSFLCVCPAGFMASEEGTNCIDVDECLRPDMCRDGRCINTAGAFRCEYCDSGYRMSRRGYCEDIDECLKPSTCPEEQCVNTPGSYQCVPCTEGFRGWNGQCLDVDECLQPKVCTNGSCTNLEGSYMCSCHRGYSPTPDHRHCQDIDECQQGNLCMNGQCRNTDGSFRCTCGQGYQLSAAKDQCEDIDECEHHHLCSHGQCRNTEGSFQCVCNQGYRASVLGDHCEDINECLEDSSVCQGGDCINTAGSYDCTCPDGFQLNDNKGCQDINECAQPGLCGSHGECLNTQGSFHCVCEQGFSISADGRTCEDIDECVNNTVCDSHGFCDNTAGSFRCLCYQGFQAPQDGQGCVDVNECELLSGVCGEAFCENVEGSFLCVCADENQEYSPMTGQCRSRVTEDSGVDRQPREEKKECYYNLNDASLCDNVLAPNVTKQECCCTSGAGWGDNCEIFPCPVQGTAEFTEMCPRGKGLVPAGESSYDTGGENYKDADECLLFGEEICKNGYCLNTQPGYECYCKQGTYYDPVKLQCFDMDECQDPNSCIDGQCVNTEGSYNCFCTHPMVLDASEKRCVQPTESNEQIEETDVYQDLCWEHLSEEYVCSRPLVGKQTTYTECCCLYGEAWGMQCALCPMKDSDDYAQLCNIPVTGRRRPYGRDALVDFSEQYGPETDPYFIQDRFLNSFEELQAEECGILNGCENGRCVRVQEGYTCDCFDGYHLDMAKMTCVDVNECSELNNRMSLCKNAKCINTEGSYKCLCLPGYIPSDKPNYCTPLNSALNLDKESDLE
# Sequence of proTGFβ1 presented by endogenous LTBP1/3 in LN229 cells (P01137 30-390): as the sequence (P01137 30-390) above
Molecule,KD of Fab fragments [1],"Binding of human Fabs for huLTBP1 proTGFβ1 and huLTBP3 proTGFβ1 (FIGS. 23, 24) [1]","Monovalent affinities (FIGS. 23, 24) [1]","Inhibition of TGFβ1 activation (TGFβ activity, luciferase) [2]","Inhibition of TGFβ1 activation (TGFβ activity, luciferase) [3]"
B1,sub-nanomolar,context-selective binding,picomolar monovalent affinities,,
B2,,,,improved potency,improved potency
B3,,,,improved potency,improved potency
B4,sub-nanomolar,context-selective binding,picomolar monovalent affinities,,

# — patent US11214614B2, “LTBP complex-specific inhibitors of TGFβ and uses thereof” (Scholar Rock, Inc., priority 2019, dated 2022)
